The values below come from publication PMC9894162.

The target in this series is GST-NS5 (Zika virus, UniProt A0A1B0XTC8 2521-3423). Put plainly: EMSA.

B1: genomic Sox2 DNA duplex (dsDNA)
DNA 1: TCAGCAAGCGCCTGGGCGCCGAGTGGAAACTTTTG
DNA 2: CAAAAGTTTCCACTCGGCGCCCAGGCGCTTGCTGA
With B1, the binding result is “binds”.
